According to publication PMC4950921:

What was measured:
[1] = target: EphA2 L223R/L254R/V255R mutant (UniProt P29317)
[2] = target: EphA2 L223R/L254R/V255R mutant (UniProt P29317); remark: listed apart in the source

UniProt P29317, sequence (P29317 24-976 L223R/L254R/V255R): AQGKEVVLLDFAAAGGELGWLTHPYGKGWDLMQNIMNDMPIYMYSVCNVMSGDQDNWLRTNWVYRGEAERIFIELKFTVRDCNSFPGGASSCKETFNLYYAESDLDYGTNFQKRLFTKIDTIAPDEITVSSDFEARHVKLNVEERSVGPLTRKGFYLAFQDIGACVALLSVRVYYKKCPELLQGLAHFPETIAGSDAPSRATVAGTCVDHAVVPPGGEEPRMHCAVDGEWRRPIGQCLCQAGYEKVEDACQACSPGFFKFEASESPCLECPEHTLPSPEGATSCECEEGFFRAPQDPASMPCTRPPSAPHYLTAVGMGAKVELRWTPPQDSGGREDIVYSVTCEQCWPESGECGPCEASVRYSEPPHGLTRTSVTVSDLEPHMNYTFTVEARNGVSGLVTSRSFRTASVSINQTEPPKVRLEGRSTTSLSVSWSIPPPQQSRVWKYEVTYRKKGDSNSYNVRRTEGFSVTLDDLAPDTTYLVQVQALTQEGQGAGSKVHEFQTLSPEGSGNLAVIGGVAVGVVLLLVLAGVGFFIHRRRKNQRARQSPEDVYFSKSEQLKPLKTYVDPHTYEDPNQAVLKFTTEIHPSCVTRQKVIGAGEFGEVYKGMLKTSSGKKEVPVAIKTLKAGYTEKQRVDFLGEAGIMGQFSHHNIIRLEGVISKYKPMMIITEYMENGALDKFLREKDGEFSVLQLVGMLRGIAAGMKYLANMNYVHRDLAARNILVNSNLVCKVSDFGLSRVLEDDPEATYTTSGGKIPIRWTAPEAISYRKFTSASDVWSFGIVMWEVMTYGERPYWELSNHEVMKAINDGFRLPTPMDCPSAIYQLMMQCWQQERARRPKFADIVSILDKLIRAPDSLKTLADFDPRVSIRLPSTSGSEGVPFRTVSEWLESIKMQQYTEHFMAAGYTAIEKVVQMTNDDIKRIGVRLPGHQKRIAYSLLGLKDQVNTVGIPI

YSAYPDSVPMMSGSGSK [YSA peptide with the GSGSK linker]
suppression of migration of transfected HEK293T cells, transwell assay, 6 uM YSA [1]: 25%
decrease of EphA2 Ser897 phosphorylation, Western blot, HEK293T, 6 uM YSA [2]: 35%
